Test results published in US20260242430A1, “NOVEL FUNGAL DERIVED COMPOUNDS” (Aalborg Universitet, priority 2023, published 2026).

Tests used:
Apiosporin = test: Immunoprecipitation of Apiosporin from fungal extract by sdAbs with mass spec identification; assay type: binding, Apiospora arundinis; conditions: Protein A SpinTrap
Method: 50 μl of the partial pure sdAbs prepared in example 9 and 150 μl fungal extract (resuspended in PBS with 500 mM NaCl and 0.2% Tween20) were incubated overnight at 4° C. The mixed sdAb and fungal extract were purified on a SpinTrap Protein A from Cytivia accoridng to manufactures instructions except that the elution was performed into 50% AcN 5% formic acid.
The same immune precipitations were analysed by HPLC-DAD-HRMS using a Hitachi Elite LaChrom HPLC system, equipped with a phenyl-hexyl 100 Å (150×4.6 mm Kinetex 5 μm, Phenomenex) column kept at 40° C. and coupled by a 5:95 flow splitter to a high-resolution mass spectrometer (compact qTOF, Bruker) with an electrospray source (Capilary: 4500 V; end plate offset 500 V; Dry gas 4.0 L/min, 200° C.) operated in positive mode. The injection volume was set to 30 μL and separated using a 1.2 mL/min gradient initiating at 10% solvent A (acetonitrile (HiPerSolv CHROMANORM, VWR) with 0.1% v/v formic acid (MS-grade 98%, Sigma-Aldrich)) in 90% solvent B (water (HiPerSolv CHROMANORM, VWR) with 0.1% v/v formic acid (MS-grade 98%, Sigma-Aldrich)), increasing linearly to 100% solvent A over 17 minutes and held for 6 minutes. After 0.5 minutes from sample injection, 2 μL calibrant (10 mM NaOH and 26 mM formic acid (MS-grade 98%, Sigma-Aldrich) in 1:1 water (HiPerSolv CHROMANORM, VWR): isopropanol) was injected directly to the mass analyser and used for internal spectra calibration. Mass spectrometric instrument control, data recording and data processing was performed using Compass DataAnalysis 4.2 SR2 (Bruker).

[1] = system: Apiosporin from a lysate of Apiospora arundinis (Isolate AAU773); test: Octet measurement of sdAbs capturing Apiosporin from fungal lysate; assay type: binding
Method: The Aim was to establish that selected antibody fragments could capture their target antigen Apiosporin from a lysate of WT Apiospora arundinis (Isolate AAU773), whereas no antigen would be bound specifically to the antibody fragments when KO Apiospora arundinis were applied in the binding assay.
The sdAbs produced as in example 9 were applied to amine reactive biosensors from Sartorius for the Octet instrument. First the reagents were prepared according to the AR2G kit instructions. For a standard immobilization scouting assay 200 μL/well of water was added to column 1 of a 96-well plate. The 200 μL/well 1 M ethanolamine pH 8.5 were added to column 4. 200 μL/well assay running buffer into column 5. Here the provided Kinetics Buffer (dilute the 10× Kinetics Buffer 10-fold in PBS) was used. 200 μL/well of the sdAbs were added to column 6 at a concentration of 500 nM. The sdAbs were prepared to be immobilized. Protein was prepared in each of the 10 mM acetate buffers at pH 4, 5 and 6. A starting ligand concentration of at least 20 μg/mL is recommended. The ligand concentration may be decreased as low as 5 μg/mL if the immobilization time is extended; some performance loss is expected at lower ligand concentrations. Prepare 500 μL at each pH.
As Apiosporin is present in an unknown concentration in the crude extracts, it is not possible to estimate a Kd from the sensorgram. Also, it is not possible to fit the raw data to a nice binding curve when a ligand concentration is not known. However, in order to allow fitting a concentration of 100 nM and 10 nM (resulting in almost identical fitting curves) of Apiosporin were inserted. The same fitting settings were used for all (data correction aligning to the association step with baseline correction to dissociation, Savitzky-Golay filtering to smoothen the curves, 1:1 model graph fitting to association and dissociation separately). […] It thus establishes that there is a normal association/dissociation between Apiosporin and sdAbs for the WT, but no association/dissociation for the KO as expected. Thus, it is seen that the antibodies are specific against the compound produced from the NRPS.

[2] = system: Apiospora arundinis (Isolate AAU773); test: Immunofluorescent staining of Apiospora arundinis with sdAbs; assay type: cell-based; conditions: primary sdAb 70 nM, ALFA tag secondary (Alexa 647)
Method: Apiospora arundinis (Isolate AAU773) were grown in liquid culture and spotted on glass cover slips where they were immobilized using tape. The fungi were fixed by addition of 3.7% paraformaldehyde for 10 min. Then blocking with 5% skim milk in PBS before staining with the primary sdAbs (70 nM) overnight, secondary antibody (ALFA sdAb-FluoTag-X2 from Synaptic Systems, the antibody was labelled with Alexa flour 647 and used at a dilution of 1:500 for 3 h, washing 3×5 min with PBS, then staining for 2 min with calcofluor white stain (calcofluor white 1 g/l, evans blue 0.5 g/l), then wash 1×5 min with PBS.

[3] = WT fungal extract, 1:1 model fit, Apiosporin concentration assumed 100 nM

B1: AP2: single domain antibody (sdAb) selected against Apiosporin, SEQ ID NO: 11 (protein)
VHH: EVQLLESGGGLVQPGGSLRLSCAASGFRDSDEDMGWVRQAPGKGLEWVSSIETPDGSTYYADSVKGRFTISRDNSKNTLYLQMNSLRAEDTAVYYCASQPVYSYHFDYWGQGTLVTVSSAAA
Question: B1 was tested. Which “Immunoprecipitation of Apiosporin, identified by mass spec” value (“Immunoprecipitation of Apiosporin” below) (Apiosporin) did it give?
Answer: The value was “identification of Apiosporin after immunoprecipitation”.

Question: And the “Association/dissociation (binding to ligand) on Octet” value (shortened to “Association/dissociation”) ([1]; KO fungal extract)?
Answer: Its value is “absent in the KO”.

Question: What about the “Association/dissociation” value [1, 3] of the same molecule?
Answer: Its value is “binding to a ligand present in the WT extracts”.

B2: AP7: single domain antibody (sdAb) selected against Apiosporin, SEQ ID NO: 31 (protein)
VHH: EVQLLESGGGLVQPGGSLRLSCAASGFRDSDEDMGWVRQAPGKGLEWVSSIEGPSGSTYYADSVKGRFTISRDNSKNTLYLQMNSLRAEDTAVYYCASVTWWTHPFDYWGQGTLVTVSSAAA
Question: How did the “Immunoprecipitation of Apiosporin” value (Apiosporin) turn out when B2 was run?
Answer: Its value is “identification of Apiosporin after immunoprecipitation”.

B3: AP1: single domain antibody (sdAb) selected against Apiosporin, SEQ ID NO: 6 (protein)
VHH: EVQLLESGGGLVQPGGSLRLSCAASGFRDSDEDMGWVRQAPGKGLEWVSSIYSYNGSTYYADSVKGRFTISRDNSKNTLYLQMNSLRAEDTAVYYCASDRGGYNSFDYWGQGTLVTVSSAAA
Question: B3 was tested. Which “Immunoprecipitation of Apiosporin” value (Apiosporin) did it give?
Answer: Its value is “identification of Apiosporin after immunoprecipitation”.

Question: And the “Association/dissociation” value ([1]; KO fungal extract)?
Answer: The value was “absent in the KO”.

Question: And the “Association/dissociation” value [1, 3]?
Answer: The value was “binding to a ligand present in the WT extracts”.

Question: What about the “Immunofluorescent staining of septa” value ([2]; KO fungi) of the same molecule?
Answer: The value was “No clearly staining in septa”.

Question: And the “Immunofluorescent staining of septa” value ([2]; WT fungi)?
Answer: Its value is “Staining is clearly shown in septa between two hyphae”.

B4: AP4: single domain antibody (sdAb) selected against Apiosporin, SEQ ID NO: 21 (protein)
VHH: EVQLLESGGGLVQPGGSLRLSCAASGFRDSDEDMGWVRQAPGKGLEWVSSIDAEDGSTYYADSVKGRFTISRDNSKNTLYLQMNSLRAEDTAVYYCASDSGDWFSFDYWGQGTLVTVSSAAA
Question: Which results are given for B4?
Answer: Association/dissociation (binding to ligand) on Octet ([1]; KO fungal extract): absent in the KO; Association/dissociation (binding to ligand) on Octet [1, 3]: binding to a ligand present in the WT extracts

B5: AP3: single domain antibody (sdAb) selected against Apiosporin, SEQ ID NO: 16 (protein)
VHH: EVQLLESGGGLVQPGGSLRLSCAASGFRDSDEDMGWVRQAPGKGLEWVSSIGGYNGSTYYADSVKGRFTISRDNSKNTLYLQMNSLRAEDTAVYYCASEGYYTSAFDYWGQGTLVTVSSAAA
Question: What does the source list for B5?
Answer: Association/dissociation (binding to ligand) on Octet ([1]; KO fungal extract): absent in the KO; Association/dissociation (binding to ligand) on Octet [1, 3]: binding to a ligand present in the WT extracts
